According to article PMC6797079:
Residue numbers refer to the chain shown, from its start. In names and notes the source's numbering stands. Blank lines part the entries; values can stand above or below the binder they belong to.

Columns and labels:
Experiment in all cases: FRET
Conditions in all cases: chain shown with the change, n = 2, minimum of 20 cells analyzed in each n, read off a plot
[1] = target: T1, NIS D237A, cerulean- or citrine-tagged, Q92911
T1 chain: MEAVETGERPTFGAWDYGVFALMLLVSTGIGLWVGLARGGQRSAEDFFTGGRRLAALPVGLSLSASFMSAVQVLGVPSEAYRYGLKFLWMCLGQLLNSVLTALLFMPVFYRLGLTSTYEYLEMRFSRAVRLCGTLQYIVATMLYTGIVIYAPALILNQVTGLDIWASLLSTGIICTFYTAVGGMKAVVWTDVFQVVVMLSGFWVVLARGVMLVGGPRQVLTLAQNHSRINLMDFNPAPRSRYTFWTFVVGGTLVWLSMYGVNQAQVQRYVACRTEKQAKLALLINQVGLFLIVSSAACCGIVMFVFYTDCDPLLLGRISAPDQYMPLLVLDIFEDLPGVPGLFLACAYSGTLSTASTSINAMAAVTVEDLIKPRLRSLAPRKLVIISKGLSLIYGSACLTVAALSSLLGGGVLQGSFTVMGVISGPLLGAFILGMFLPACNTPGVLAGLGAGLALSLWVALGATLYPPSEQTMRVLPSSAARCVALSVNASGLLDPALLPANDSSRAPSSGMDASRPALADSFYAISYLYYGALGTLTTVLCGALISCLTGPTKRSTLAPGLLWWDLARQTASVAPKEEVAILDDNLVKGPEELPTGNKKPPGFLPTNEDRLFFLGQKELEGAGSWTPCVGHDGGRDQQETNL

[2] = target: T2, NIS Y242A, cerulean- or citrine-tagged, Q92911
T2 chain: T1 chain with A237D, Y242A

[3] = target: T3, NIS T243A, cerulean- or citrine-tagged, Q92911
T3 chain: T1 chain with A237D, T243A

response ([1]; HeLa cells, parent: est. 15): 50 | response ([1]; SW1736 cells, parent: est. -10): -180
B1: sodium/iodide symporter (NIS), wild type, cerulean- or citrine-tagged, Q92911 Cer:A525F; Cit:D237A (protein)
chain: T1 chain with A237D, A525F

response ([2]; HeLa cells, parent: est. 15): 120 | response ([2]; SW1736 cells, parent: est. -10): -50
B2: sodium/iodide symporter (NIS), wild type, cerulean- or citrine-tagged, Q92911 Cer:A525F; Cit:Y242A (protein)
chain: T1 chain with A237D, A525F

response ([2]; HeLa cells, parent: est. 15): -100 | response ([2]; SW1736 cells, parent: est. -10): -220
B3: sodium/iodide symporter (NIS), wild type, cerulean- or citrine-tagged, Q92911 Cer:Q471A; Cit:Y242A (protein)
chain: T1 chain with A237D, Q471A

response ([3]; HeLa cells, parent: est. 15): -100 | response ([3]; SW1736 cells, parent: est. -10): -330
B4: sodium/iodide symporter (NIS), wild type, cerulean- or citrine-tagged, Q92911 Cer:Q471A; Cit:T243A (protein)
chain: T1 chain with A237D, Q471A
